Assay results reported in PMC6805484 (2019).

B1: GFP-MKRN1^wt (Makorin Ring Finger Protein 1, wild type, N-terminally GFP-tagged) [human] / cytoplasmic poly(A)-binding protein PABPC4 (endogenous) [human (endogenous in HEK293T)] (parent complex)
chain 1: MAEAATPGTTATTSGAGAAAATAAAASPTPIPTVTAPSLGAGGGGGGSDGSGGGWTKQVTCRYFMHGVCKEGDNCRYSHDLSDSPYSVVCKYFQRGYCIYGDRCRYEHSKPLKQEEATATELTTKSSLAASSSLSSIVGPLVEMNTGEAESRNSNFATVGAGSEDWVNAIEFVPGQPYCGRTAPSCTEAPLQGSVTKEESEKEQTAVETKKQLCPYAAVGECRYGENCVYLHGDSCDMCGLQVLHPMDAAQRSQHIKSCIEAHEKDMELSFAVQRSKDMVCGICMEVVYEKANPSERRFGILSNCNHTYCLKCIRKWRSAKQFESKIIKSCPECRITSNFVIPSEYWVEEKEEKQKLILKYKEAMSNKACRYFDEGRGSCPFGGNCFYKHAYPDGRREEPQRQKVGTSSRYRAQRRNHFWELIEERENSNPFDNDEEEVVTFELGEMLLMLLAAGGDDELTDSEDEWDLFHDELEDFYDLDL
chain 2: MNAAASSYPMASLYVGDLHSDVTEAMLYEKFSPAGPVLSIRVCRDMITRRSLGYAYVNFQQPADAERALDTMNFDVIKGKPIRIMWSQRDPSLRKSGVGNVFIKNLDKSIDNKALYDTFSAFGNILSCKVVCDENGSKGYAFVHFETQEAADKAIEKMNGMLLNDRKVFVGRFKSRKEREAELGAKAKEFTNVYIKNFGEEVDDESLKELFSQFGKTLSVKVMRDPNGKSKGFGFVSYEKHEDANKAVEEMNGKEISGKIIFVGRAQKKVERQAELKRKFEQLKQERISRYQGVNLYIKNLDDTIDDEKLRKEFSPFGSITSAKVMLEDGRSKGFGFVCFSSPEEATKAVTEMNGRIVGSKPLYVALAQRKEERKAHLTNQYMQRVAGMRALPANAILNQFQPAAGGYFVPAVPQAQGRPPYYTPNQLAQMRPNPRWQQGGRPQGFQGMPSAIRQSGPRPTLRHLAPTGSECPDRLAMDFGGAGAAQQGLTDSCQSGGVPTAVQNLAPRAAVAAAAPRAVAPYKYASSVRSPHPAIQPLQAPQPAVHVQGQEPLTASMLAAAPPQEQKQMLGERLFPLIQTMHSNLAGKITGMLLEIDNSELLHMLESPESLRSKVDEAVAVLQAHHAKKEAAQKVGAVAAATS

Variants of: B1
Experiment: AP with quantitative MS-based proteomics (SILAC); HEK293T cells; combined ratios of three replicates; read off a plot

Variant | screen value [z-score]
chain 1 A169S, chain 1 F172A, chain 1 P174A | ~-9.1
